Experimental data: US20100166779A1 (GANYMED PHARMACEUTICALS, published 2010)
Positions count from the first letter of the chain named.

Legend:
[1] = molecular target: T1, Peptide 7 RSCVRESSGFTECRG (human); test: SPOT peptide scan, peroxidase-conjugated antibody, luminescence; no exchange
T1 construct: linear 15mer of the SPOT peptide scan, no exchange
T1 peptide: RSCVRESSGFTECRG

[2] = molecular target: T2, Peptide 6 QGLWRSCVRESSGFT (human); test: as above
T2 construct: linear 15mer of the SPOT peptide scan, no exchange
T2 peptide: QGLWRSCVRESSGFT

[3] = molecular target: T3, Peptide 1 MDQWSTQDLYNNPVT (human); test: as above
T3 construct: linear 15mer of the SPOT peptide scan; has no cysteine, so the Cys-Ser exchange row is the same peptide
T3 peptide: MDQWSTQDLYNNPVT

[4] = molecular target: T4, Peptide 7, Cys-Ser exchange (human); test: SPOT peptide scan, peroxidase-conjugated antibody, luminescence; Cys-Ser exchange
T4 construct: also called peptide 7 containing serines instead of the two cysteines
T4 peptide: RSSVRESSGFTESRG

[5] = molecular target: T5, Peptide 5 VFNYQGLWRSCVRES (human); test: SPOT peptide scan, peroxidase-conjugated antibody, luminescence; no exchange
T5 construct: linear 15mer of the SPOT peptide scan, no exchange
T5 peptide: VFNYQGLWRSCVRES

[6] = molecular target: T6, Peptide 3 LYNNPVTAVFNYQGL (human); test: as above
T6 construct: linear 15mer of the SPOT peptide scan; has no cysteine, so the Cys-Ser exchange row is the same peptide
T6 peptide: LYNNPVTAVFNYQGL

human CLD18A1 [7] = molecular target: T7, human CLD18A1 (human, UniProt P56856 1-261); test: flow cytometry on HEK293-CLD18A1 cells
T7 construct: on transfected HEK293 or CHO cells; also called claudin 18 splice variant 1; NP-057453

[8] = molecular target: T8, Peptide 6, Cys-Ser exchange (human); test: SPOT peptide scan, peroxidase-conjugated antibody, luminescence; Cys-Ser exchange
T8 peptide: QGLWRSSVRESSGFT

[9] = molecular target: T9, Peptide 5, Cys-Ser exchange (human); test: as above
T9 peptide: VFNYQGLWRSSVRES

murine CLD18A1 [10] = molecular target: T10, murine CLD18A1 (mouse, UniProt P56857 1-264); test: flow cytometry on transfected HEK293 cells
T10 construct: on transiently transfected HEK293 cells; also called mouse CLD18A1; NP-062789
Experimental: Binding of the identified monoclonal antibodies to murine CLD18A2 and CLD18A1 was analyzed by flow cytometry. […] Binding was assessed by flow cytometry using a BD FACSArray.

human CLD18A1 [11] = molecular target: T7, human CLD18A1; test: summary table of murine antibodies
murine CLD18A1 [12] = molecular target: T10, murine CLD18A1; test: summary table of murine antibodies
human CLD18A1 [13] = molecular target: T7, human CLD18A1; test: summary of properties
murine CLD18A1 [14] = molecular target: T10, murine CLD18A1; test: summary of properties

B1: ch-175D10 (antibody, V domains shown)
VH: QVQLQQPGAELVRPGASVKLSCKASGYTFTSYWINWVKQRPGQGLEWIGNIYPSDSYTNYNQKFKDKATLTVDKSSSTAYMQLSSPTSEDSAVYYCTRSWRGNSFDYWGQGTTLTVSS
VL: DIVMTQSPSSLTVTAGEKVTMSCKSSQSLLNSGNQKNYLTWYQQKPGQPPKLLIYWASTRESGVPDRFTGSGSGTDFTLTISSVQAEDLAVYYCQNDYSYPFTFGSGTKLEIKR
notes: mouse/human chimeric, human gamma-1 and kappa constant regions; peroxidase-conjugated in the peptide scan; also called chimeric 175D10
binding result [1]: binds
binding result [2]: binds
binding result [3]: binds
binding result [4]: binds

B2: ch-163E12 (antibody, V domains shown)
VH: QIQLVQSGPELKKPGETVKISCKASGYTFTNYGMNWVKQAPGKGLKWMGWINTNTGEPTYAEEFKGRFAFSLETSASTAYLQINNLKNEDTATYFCARLGFGNAMDYWGQGTSVTVSS
VL: B1 VL with F102L, S106A, I112L
notes: mouse/human chimeric, human gamma-1 and kappa constant regions; peroxidase-conjugated in the peptide scan; also called chimeric 163E12
binding result [5]: binds
binding result [6]: binds
binding result [2]: binds
binding result [3]: binds
binding result (human CLD18A1 [7]): no binding
binding result [8]: binds
binding result [9]: binds

B3: 163E12 (antibody, IgG3, V domains shown)
VH: B2 VH
VL: DIVMTQSPSSLTVTAGEKVTMSCKSSQSLLNSGNQKNYLTWYQQKPGQPPKLLIYWASTRESGVPDRFTGSGSGTDFTLTISSVQAEDLAVYYCQNDYSYPLTFGAGTKLELK
notes: mouse monoclonal IgG3, kappa; also called 182-D1106-294; DSM ACC2809
binding result (murine CLD18A1 [10]): no binding
binding result (human CLD18A1 [7]): no binding

B4: ch-43A11 (antibody, V domains shown)
VH: QVQLQQSGAELMKPGASVKISCKATGYTFSSYWIEWVKQRPGHGLEWIGEILPGSGSTNYNEKFKGKATFTADTSSNTAYMQLSSLTSEDSAVYYCARYDYPWFAYWGQGTLVTVSA
VL: QIVLTQSPAIMSASPGEKVTITCSASSSVSYMHWFQQKPGTSPKLWIYSTSNLASGVPARFSGSGSGTSYSLTISRMEAEDAATYYCQQRSSYPPTFGGGTKLEIKR
notes: mouse/human chimeric, human gamma-1 and kappa constant regions; also called chimeric 43A11
binding result (human CLD18A1 [7]): no binding

B5: ch-125E1 (antibody, V domains shown)
VH: QVQLQQSGAELARPGASVKLSCKASGYTFTDYYINWVKQRTGQGLEWIGEIYPGSGNTYYNEKFKGKATLTADKSSSTAYMQLSSLTSEDSAVYFCARSYGAFDYWGQGTTLTVSS
VL: DIVMTQSQKFMSTSVGDRVSITCKASQNVRTAVAWYQQKPGQSPKALIYLASNRHTGVPDRFTGSGSGTDFTLTISNVQSEDLADYFCLQHWNYPLTFGGGTKLEIKR
notes: mouse/human chimeric, human gamma-1 and kappa constant regions; also called chimeric 125E1
binding result (human CLD18A1 [7]): no binding

B6: ch-166E2 (antibody, V domains shown)
VH: QVQLQQSGPELVKPGASVKMSCKASGYTFTDYVISWVKQRTGQGLEWIGEIYPGSGSTYYNEKFKGKATLTADKSSNTAYMQLSSLTSEDSAVYFCARGVLLRAMDYWGQGTSVTVSS
VL: DIVMSQSPSSLAVSAGEKVTMSCKSSQSLLNSRTRKNYLAWYQQKPGQSPKLLIYWASTRESGVPDRFTGSGSGTDFTLTISSVQAEDLAVYYCKQSYNLYTFGGGTKLEIKR
notes: mouse/human chimeric, human gamma-1 and kappa constant regions; also called chimeric 166E2
binding result (human CLD18A1 [7]): no binding

B7: 125E1 (antibody, IgG2a, V domains shown)
VH: B5 VH
VL: DIVMTQSQKFMSTSVGDRVSITCKASQNVRTAVAWYQQKPGQSPKALIYLASNRHTGVPDRFTGSGSGTDFTLTISNVQSEDLADYFCLQHWNYPLTFGGGTKLEIK
notes: mouse monoclonal IgG2a, kappa; also called 182-D1106-279; DSM ACC2808
binding result (human CLD18A1 [11]): no binding
binding result (murine CLD18A1 [12]): no binding

B8: 166E2 (antibody, IgG3, V domains shown)
VH: B6 VH
VL: DIVMSQSPSSLAVSAGEKVTMSCKSSQSLLNSRTRKNYLAWYQQKPGQSPKLLIYWASTRESGVPDRFTGSGSGTDFTLTISSVQAEDLAVYYCKQSYNLYTFGGGTKLEIK
notes: mouse monoclonal IgG3, kappa; also called 182-D1106-308
binding result (human CLD18A1 [13]): no binding
binding result (murine CLD18A1 [14]): no binding

B9: 43A11 (antibody, IgG2a, V domains shown)
VH: B4 VH
VL: QIVLTQSPAIMSASPGEKVTITCSASSSVSYMHWFQQKPGTSPKLWIYSTSNLASGVPARFSGSGSGTSYSLTISRMEAEDAATYYCQQRSSYPPTFGGGTKLEIK
notes: mouse monoclonal IgG2a, kappa; also called 182-D1106-062; DSM ACC2742
binding result (human CLD18A1 [7]): no binding
